This experiment deals with AEDANS labelled N-ter hexahistidine tagged LMV VPg (Lettuce mosaic virus (isolate AF199)). Kind of experiment: fluorescence polarisation; steady state fluorescence anisotropy of AEDANS labelled His6 VPg* (300 nM) on addition of His6 eIF4E; 25 °C, 20 mM HEPES pH 7.5, 0.25 mM NaCl, 1 mM DTT.

B1: N-ter hexahistidine tagged lettuce eIF4E (natural protein)
chain: MVEEIMKSEEQKLIDVNKHRGVRSDGEEDEQLEEGEIVGGDADTLSSSSSSRPGTAIAQHPLEHSWTFWFDTPSAKSKQVAWGSSMRPIYTFSSVEEFWSLYNNIHRPSKLAQGADFYCFKNKIEPKWEDPVCANGGKWTMTFTKAKSDTCWLYTLLAMIGEQFDHGDDICGAVVNVRARQEKIALWTKNAANESAQLSIGKQWKEFIDYNDTIGFIFHEDAKTLDRSAKNKYTV
For B1, the dissociation constant Kd (as a rule, a measure of binding affinity in units of concentration) amounted to 63 nM.

For the origin of these results see paper PMC6479716.
